Where a chain is given by its changes, count along the chain named.
B1: humanized 15H3 antibody HBLC (antibody, V domains shown)
VH: QVQLVQSGAEVKKPGASVKVSCKASGYSFSGYFMNWVRQAPGQGLEWMGLINPYNGDSFYNQKFKGRVTMTRDTSTSTVYMELSSLRSEDTAVYYCARGLRRDFDYWGQGTLVTVSS
VL: DVVMTQSPLSLPVTLGQPASISCKSSQSLLDSDGKTYLNWLFQRPGQSPRRLIYLVSELDSGVPDRFSGSGSGTDFTLKISRVEAEDVGVYYCWQGTHFPRTFGGGTKLEIKR
notes: Only variable regions are tied to the construct; also called h15H3 (HBLC); h15H3-1
B2: humanized 15H3 antibody HTLC (antibody, V domains shown)
VH: B1 VH with D73Q, A97V
VL: B1 VL
notes: Only variable regions are tied to the construct; also called h15H3 (HTLC); h15H3-3
B3: murine 15H3 monoclonal antibody (antibody, V domains shown)
VH: EVQLQQSGPELVKPGASVKISCKASGYSFSGYFMNWVKQSHGQSLEWIGLINPYNGDSFYNQKFKGKATLTVQKSSSTAHMELQSLTSEDSAVFYCVRGLRRDFDYWGQGTPLTVSS
VL: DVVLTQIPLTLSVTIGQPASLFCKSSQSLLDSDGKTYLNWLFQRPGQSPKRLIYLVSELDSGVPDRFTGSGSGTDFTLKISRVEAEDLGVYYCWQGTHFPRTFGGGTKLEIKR
notes: Murine hybridoma antibody; also called m15H3; mouse 15H3

Tests used:
[1] = target: T1, human integrin αvβ6 on cells (human, UniProt P06756 31-1048; P18564 22-788); assay: saturation binding of biotinylated antibody, flow cytometry on 293F:huβ6 cells (apparent Kd)
T1 construct: whole, on cells; also called HEK293F:huβ6
Procedure: (§1) 0.25-0.5×10⁶ antigen expressing cells were aliquoted per well into a 96-well v-bottom plate. m15H3, h15H3 (HBLC) and h15H3 (HTLC) were directly labeled with equivalent levels of biotin and added to cells at concentrations ranging from 0.1 pM-150 nM. Cells were incubated on ice for 30 minutes, washed three times in FACS buffer (PBS, 2% fetal bovine serum, 1 mM MgCl₂, 1 mM CaCl₂, 0.02% NaN₃), incubated on ice for 45 minutes with PE conjugated streptavidin (0.5 ug/ml) in FACS buffer, washed three times and resuspended in FACS buffer. Binding was detected using a Becton Dickinson Biosciences FACSCalibur (San Jose, Calif.). The apparent Kd was calculated using GraphPad Software (LaJolla, Calif.).

[2] = target: T1, human integrin αvβ6 on cells; assay: competition binding, flow cytometry on 293F cells expressing αvβ6; competitor 2 nM AlexaFluor-647 m15H3
Procedure: 1×10⁵ antigen expressing cells were aliquoted in each well of a 96-well v-bottom plate on ice. […] Cells were pelleted and washed 3 times with PBS. The cells were pelleted and resuspended in 125 uL of PBS/BSA. Fluorescence was analyzed by flow cytometery, using percent of saturated fluorescent signal to determine percent labeled murine 15H3 bound and to subsequently extrapolate the EC50 by fitting the data to a sigmoidal dose-response curve with variable slope.

[3] = target: T2, mouse integrin αvβ6 on FDC-P1:muβ6 cells (mouse, UniProt P43406 31-1044; Q9Z0T9 22-787); assay: saturation binding of biotinylated antibody, flow cytometry on FDC-P1:muβ6 cells (apparent Kd)
T2 construct: whole, on cells; Heterodimer of endogenous mouse αv and recombinant mouse β6
Procedure: as §1

[4] = target: T3, cynomolgus integrin αvβ6 on 293F:cynoβ6 cells (human; cynomolgus, UniProt P06756 31-1048; A0A2K5TZ36 22-787); assay: saturation binding of biotinylated antibody, flow cytometry on 293F:cynoβ6 cells (apparent Kd)
T3 construct: whole, on cells; also called HEK293F:cynoβ6
Procedure: as §1

[5] = target: T4, rat integrin αvβ6 on NBT-II bladder carcinoma cells (rat, UniProt F1LZX9 31-1043; Q6AYF4 22-787); assay: saturation binding of biotinylated antibody, flow cytometry on rat NBT-II cells (apparent Kd)
T4 construct: whole, on cells; Endogenous αvβ6 of rat NBT-II cells; also called rat αvβ6; rat NBT-II
Procedure: as §1
The KD for the murine αvβ6 monoclonal antibody 15H3 antibody and select humanized version thereof was determined for human, cyno, rat, and mouse. […] The genetically engineered cell lines express endogenous αv which pairs with the recombinant β6 chain to produce a heterodimeric receptor composed of endogenous αv and recombinant β6. The affinity for rat αvβ6 was determined using rat NBT-II bladder carcinoma cells, which expression endogenous αvβ6.

[6] = target: T5, recombinant αvβ3 (human, UniProt P06756 31-992; P05106 27-718); assay: ELISA, integrin coated at 1 ug/ml, biotinylated antibody
T5 construct: Bought from R&D Systems; species read from 'recombinant human αvβ6, αvβ3 and αvβ8'
Procedure: (§2) 96-well Maxisorb plates (Nunc) were coated overnight at 4° C. with 1 ug/ml of recombinant human αvβ6, αvβ3 and αvβ8 diluted in PBS. Plates were washed in PBS with 0.05% Tween 20 (PBS-T). Wash buffer was removed and plates were blocked for 30 minutes at room temperature in TBS blocking buffer (TBS plus 1 mM MnCl₂, 0.05% Tween 20, 1% BSA). Plates were washed and then incubated for 1 hour with biotinylated antibody (m15H3 or h15H3) diluted in TBS blocking buffer at concentrations that ranged from 4.6 ng/m1-10 ug/ml. Plates were washed, incubated for 1 hour with 1 ug/ml of HRP-streptavidin, washed, and then incubated with TMB substrate for 10 minutes. The reaction was stopped with 1 M H₂SO₄. Absorbance at 450 nm was read using a Fusion HT plate reader (Perkin Elmer, Waltham, Mass.).
(§3) BALB/c mice were immunized three times with intraperitoneal injections of ˜5×10⁶ 3 T3:huβ6 transfectants. Three days prior to fusion, mice received a final injection of purified recombinant human αvβ6 that was given intravenously (6 ug) and intraperitoneally (30 ug). Lymphocytes harvested from spleen and lymph nodes were fused to P3X63Ag8.653 myeloma cells using polyethylene glycol. Fused cells were recovered overnight in hybridoma growth media (IMDM containing 4 mM glutamine, 10% Fetal Clone I, 10% Cloning Factor and Penicillin/Streptomycin). […] The plates were read in an FMAT 8200 (Applied Biosystems).

[7] = target: T6, recombinant αvβ8 (human, UniProt P06756 31-992; P26012 43-684); assay: as above
T6 construct: Bought from R&D Systems; species read from 'recombinant human αvβ6, αvβ3 and αvβ8'
Procedure: as §2, §3

[8] = target: T7, integrin αvβ5 on the parental line 293F:vector (human, UniProt P06756 31-1048; P18084 24-799); assay: FMAT and FACS binding on cells
T7 construct: whole, on cells; Negative control cells; also called HEK293F:vector
T7 sequence (P06756 31-1048, chain 1 of 2): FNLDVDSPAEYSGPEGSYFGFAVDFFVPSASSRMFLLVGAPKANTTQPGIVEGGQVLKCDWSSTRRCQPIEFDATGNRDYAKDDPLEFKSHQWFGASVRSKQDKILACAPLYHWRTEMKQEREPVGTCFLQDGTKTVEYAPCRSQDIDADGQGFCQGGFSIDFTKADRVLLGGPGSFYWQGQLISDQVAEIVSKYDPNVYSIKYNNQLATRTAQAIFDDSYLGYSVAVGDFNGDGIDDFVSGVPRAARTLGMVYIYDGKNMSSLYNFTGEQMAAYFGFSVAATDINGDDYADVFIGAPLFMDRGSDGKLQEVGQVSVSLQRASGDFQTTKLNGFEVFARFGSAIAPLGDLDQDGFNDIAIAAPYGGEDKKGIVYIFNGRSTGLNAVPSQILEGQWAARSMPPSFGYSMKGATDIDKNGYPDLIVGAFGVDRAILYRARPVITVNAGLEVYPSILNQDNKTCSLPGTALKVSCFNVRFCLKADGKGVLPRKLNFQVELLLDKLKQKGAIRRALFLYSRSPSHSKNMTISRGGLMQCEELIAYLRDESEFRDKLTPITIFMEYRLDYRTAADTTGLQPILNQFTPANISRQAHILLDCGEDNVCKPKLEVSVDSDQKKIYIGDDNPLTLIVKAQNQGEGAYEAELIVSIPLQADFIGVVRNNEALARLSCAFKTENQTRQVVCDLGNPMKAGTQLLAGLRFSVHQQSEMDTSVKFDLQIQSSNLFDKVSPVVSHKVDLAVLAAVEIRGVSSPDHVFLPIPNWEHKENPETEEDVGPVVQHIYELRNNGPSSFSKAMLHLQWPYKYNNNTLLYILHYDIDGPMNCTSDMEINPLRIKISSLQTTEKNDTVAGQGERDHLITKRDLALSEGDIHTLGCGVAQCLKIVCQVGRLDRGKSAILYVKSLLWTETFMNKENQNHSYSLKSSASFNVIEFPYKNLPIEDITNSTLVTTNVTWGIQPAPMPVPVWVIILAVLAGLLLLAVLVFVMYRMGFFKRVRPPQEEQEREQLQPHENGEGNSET
T7 sequence (P18084 24-799, chain 2 of 2): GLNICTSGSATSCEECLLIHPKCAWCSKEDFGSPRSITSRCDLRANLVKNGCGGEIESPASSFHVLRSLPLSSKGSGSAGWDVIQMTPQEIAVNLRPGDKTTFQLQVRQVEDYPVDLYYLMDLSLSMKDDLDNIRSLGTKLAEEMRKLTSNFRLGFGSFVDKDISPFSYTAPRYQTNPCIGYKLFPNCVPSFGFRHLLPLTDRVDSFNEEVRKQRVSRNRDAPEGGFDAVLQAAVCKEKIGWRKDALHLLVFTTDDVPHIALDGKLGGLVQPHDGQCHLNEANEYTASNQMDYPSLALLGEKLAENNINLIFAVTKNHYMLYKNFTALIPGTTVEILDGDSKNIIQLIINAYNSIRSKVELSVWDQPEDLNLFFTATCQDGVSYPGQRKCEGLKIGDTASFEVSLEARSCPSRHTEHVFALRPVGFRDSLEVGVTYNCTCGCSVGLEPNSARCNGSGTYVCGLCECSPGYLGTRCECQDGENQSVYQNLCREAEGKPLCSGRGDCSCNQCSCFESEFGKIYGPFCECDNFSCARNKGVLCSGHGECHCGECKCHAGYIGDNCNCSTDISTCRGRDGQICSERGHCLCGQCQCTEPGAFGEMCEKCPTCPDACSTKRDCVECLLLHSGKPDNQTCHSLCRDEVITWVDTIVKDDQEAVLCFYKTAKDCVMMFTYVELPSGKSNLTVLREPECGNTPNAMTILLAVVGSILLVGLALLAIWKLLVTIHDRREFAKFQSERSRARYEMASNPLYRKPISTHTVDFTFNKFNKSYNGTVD

T2 sequence (P43406 31-1044, chain 1 of 2): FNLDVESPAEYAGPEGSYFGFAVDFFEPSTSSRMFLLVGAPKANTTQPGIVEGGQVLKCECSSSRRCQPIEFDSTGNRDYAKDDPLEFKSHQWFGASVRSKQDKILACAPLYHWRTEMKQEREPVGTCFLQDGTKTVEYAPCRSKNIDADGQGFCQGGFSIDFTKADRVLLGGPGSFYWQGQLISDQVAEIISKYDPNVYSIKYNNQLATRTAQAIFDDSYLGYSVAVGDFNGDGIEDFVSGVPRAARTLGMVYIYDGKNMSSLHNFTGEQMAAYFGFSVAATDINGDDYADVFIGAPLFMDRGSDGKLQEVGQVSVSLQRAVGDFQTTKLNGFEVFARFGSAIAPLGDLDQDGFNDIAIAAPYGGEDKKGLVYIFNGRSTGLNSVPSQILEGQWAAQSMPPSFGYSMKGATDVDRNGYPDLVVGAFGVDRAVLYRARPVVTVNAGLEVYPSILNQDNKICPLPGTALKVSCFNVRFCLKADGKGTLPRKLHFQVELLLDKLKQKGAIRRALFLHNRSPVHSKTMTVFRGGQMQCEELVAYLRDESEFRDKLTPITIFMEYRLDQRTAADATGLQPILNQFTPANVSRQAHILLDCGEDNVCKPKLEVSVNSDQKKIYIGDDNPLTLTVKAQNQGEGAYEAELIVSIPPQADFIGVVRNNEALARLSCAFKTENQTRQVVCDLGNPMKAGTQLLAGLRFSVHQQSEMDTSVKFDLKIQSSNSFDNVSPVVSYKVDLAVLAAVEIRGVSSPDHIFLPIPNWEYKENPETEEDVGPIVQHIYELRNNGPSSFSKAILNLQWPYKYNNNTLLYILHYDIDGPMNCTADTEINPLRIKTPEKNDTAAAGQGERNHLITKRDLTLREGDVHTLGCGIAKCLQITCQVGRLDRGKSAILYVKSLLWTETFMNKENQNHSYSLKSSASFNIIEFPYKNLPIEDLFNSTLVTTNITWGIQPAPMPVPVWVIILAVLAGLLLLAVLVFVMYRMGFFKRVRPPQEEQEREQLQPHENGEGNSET
T2 sequence (Q9Z0T9 22-787, chain 2 of 2): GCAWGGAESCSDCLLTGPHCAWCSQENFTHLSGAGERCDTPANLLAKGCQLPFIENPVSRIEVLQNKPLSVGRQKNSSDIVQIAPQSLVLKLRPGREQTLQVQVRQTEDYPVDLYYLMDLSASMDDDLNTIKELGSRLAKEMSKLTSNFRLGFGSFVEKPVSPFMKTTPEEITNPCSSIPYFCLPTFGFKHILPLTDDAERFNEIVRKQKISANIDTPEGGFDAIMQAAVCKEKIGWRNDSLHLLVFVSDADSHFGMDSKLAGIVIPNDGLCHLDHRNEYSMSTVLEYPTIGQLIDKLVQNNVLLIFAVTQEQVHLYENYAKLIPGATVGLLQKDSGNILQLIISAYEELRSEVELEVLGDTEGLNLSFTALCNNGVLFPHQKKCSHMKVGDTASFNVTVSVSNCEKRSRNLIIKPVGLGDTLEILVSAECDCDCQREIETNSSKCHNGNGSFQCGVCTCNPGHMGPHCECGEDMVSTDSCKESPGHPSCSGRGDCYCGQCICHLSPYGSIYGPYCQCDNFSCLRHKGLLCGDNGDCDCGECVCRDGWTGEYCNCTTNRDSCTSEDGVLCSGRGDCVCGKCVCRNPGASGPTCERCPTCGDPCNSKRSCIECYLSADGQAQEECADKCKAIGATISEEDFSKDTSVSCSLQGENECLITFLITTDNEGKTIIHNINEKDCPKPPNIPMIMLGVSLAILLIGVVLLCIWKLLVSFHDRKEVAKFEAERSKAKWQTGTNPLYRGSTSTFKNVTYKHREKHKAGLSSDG
T1 sequence (P06756 31-1048, chain 1 of 2): as the sequence (P06756 31-1048, chain 1 of 2) above
T1 sequence (P18564 22-788, chain 2 of 2): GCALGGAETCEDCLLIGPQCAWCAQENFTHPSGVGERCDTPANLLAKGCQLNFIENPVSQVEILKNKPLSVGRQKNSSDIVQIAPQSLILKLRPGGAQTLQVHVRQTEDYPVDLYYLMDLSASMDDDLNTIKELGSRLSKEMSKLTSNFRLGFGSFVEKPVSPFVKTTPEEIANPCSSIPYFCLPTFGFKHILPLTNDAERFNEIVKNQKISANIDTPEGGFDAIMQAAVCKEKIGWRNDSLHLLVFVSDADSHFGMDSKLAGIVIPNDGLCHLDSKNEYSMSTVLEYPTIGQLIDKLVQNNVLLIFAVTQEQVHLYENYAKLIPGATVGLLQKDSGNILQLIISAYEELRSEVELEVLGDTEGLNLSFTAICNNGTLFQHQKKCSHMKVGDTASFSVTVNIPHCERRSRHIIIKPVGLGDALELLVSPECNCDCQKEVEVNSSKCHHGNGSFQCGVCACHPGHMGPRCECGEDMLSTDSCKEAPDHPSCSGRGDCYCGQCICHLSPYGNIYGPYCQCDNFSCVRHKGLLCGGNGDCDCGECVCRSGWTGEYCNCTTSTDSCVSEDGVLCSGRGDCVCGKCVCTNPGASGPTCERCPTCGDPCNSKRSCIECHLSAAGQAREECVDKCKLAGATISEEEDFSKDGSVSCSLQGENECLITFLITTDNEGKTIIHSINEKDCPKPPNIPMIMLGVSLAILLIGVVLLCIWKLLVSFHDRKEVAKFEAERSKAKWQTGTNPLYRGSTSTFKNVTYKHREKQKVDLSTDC

Row | Binder | Kd [1] [nM] | EC50 [2] [nM] | Kd [3] [nM] | Kd [4] [nM] | Kd [5] [nM] | binding result [6] | binding result [7] | binding result [8]
1 | B1 | 1.4 | 8.14 | 0.6 | 1.6 | – | – | – | –
2 | B2 | 1.2 | 3.7 | 0.3 | 1.5 | 0.4 | – | – | –
3 | B3 | 0.8 | – | 0.2 | 1 | 0.2 | no binding (tested: 4.6 ng/ml-10 ug/ml) | no binding (tested: 4.6 ng/ml-10 ug/ml) | no binding
